Experimental data taken from patent publication US20230070339A1 (UNIVERSITY OF SOUTHAMPTON, published 2023).

Biological target: T1, LILRB3-hFc recombinant protein (human, UniProt O75022 24-443)
T1 construct: extracellular domain; also called LILRB-Fc; the extracellular LILRB3 domain with a human Fc tag; not shown: human Fc tag
Assay: SPR (Biacore T100), LILRB3-hFc amine-coupled on CM5 chip, mAb as analyte, 1:1 model
Procedure: SPR was performed with the Biacore T100 (GE Healthcare, UK) as per the manufacturer's instructions. LILRB3-hFc recombinant protein (the extracellular LILRB3 domain with a human Fc tag) was used as the ligand and immobilized by amine coupling onto a series S sensor chip (CM5). Various LILRB3 mAb were used as “analytes” and flowed across the chip, and SPR measured.

T1 sequence (O75022 24-443): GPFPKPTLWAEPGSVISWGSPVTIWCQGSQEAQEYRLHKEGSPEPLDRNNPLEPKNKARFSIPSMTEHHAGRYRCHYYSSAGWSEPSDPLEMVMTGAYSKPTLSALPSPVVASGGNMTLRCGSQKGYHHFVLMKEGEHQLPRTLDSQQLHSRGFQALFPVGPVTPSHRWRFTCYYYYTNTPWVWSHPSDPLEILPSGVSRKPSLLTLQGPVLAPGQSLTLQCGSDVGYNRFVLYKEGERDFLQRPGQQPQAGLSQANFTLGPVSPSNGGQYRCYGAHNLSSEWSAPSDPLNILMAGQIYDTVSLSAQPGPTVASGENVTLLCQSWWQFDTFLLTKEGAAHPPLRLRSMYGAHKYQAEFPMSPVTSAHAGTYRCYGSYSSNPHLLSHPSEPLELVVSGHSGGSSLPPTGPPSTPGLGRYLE

B1: LILRB3 mAb clone A16 (antibody, human IgG1, V domains shown)
VH: EVQLLESGGGLVQPGGSLRLSCAASGFTFSSYWMSWVRQAPGKGLEWVSRINTHGTNIDYADSVKGRFTISRDNSKNTLYLQMNSLRAEDTAVYYCVGVAGTGWFDPWGQGTLVTVSS
VL: QSVLTQPPSASGTPGQRVTISCTGSSSNIGAGYDVHWYQQLPGTAPKLLIYGNNNRPSGVPDRFSGSKSGTSASLAISGLRSEDEADYYCQSYDTSLSGSVFGGGTKLTVLG
notes: Fully human IgG1, full-length IgG; only variable domains tied to the clone; APC-labelled for staining of primary cells; deglycosylated in the T cell assay
Kd: 0.816 nM
